Laboratory results published in US20260167721A1.

Columns and labels:
[1] = target: human CD3 (on the surface of Jurkat wild-type cells and of human Pan T cells) (human) (UniProt P07766); assay: flow cytometry, isotype control antibody on Jurkat WT cells
RT3-T3.5 (TCR-KO) cells [2] = assay: flow cytometry, isotype control antibody on RT3-T3.5 (TCR-KO) negative control cells
[3] = target: human CD3 (on the surface of Jurkat wild-type cells and of human Pan T cells) (human) (UniProt P07766); assay: flow cytometry, isotype control antibody on human Pan T cells
RT3-T3.5 (TCR-KO) cells [4] = assay: flow cytometry, control antibody on RT3-T3.5 (TCR-KO) negative control cells
[5] = target: human CD3 (on the surface of Jurkat wild-type cells and of human Pan T cells) (human) (UniProt P07766); assay: flow cytometry, control antibody on Jurkat WT cells
[6] = target: human CD3 (on the surface of Jurkat wild-type cells and of human Pan T cells) (human) (UniProt P07766); assay: flow cytometry, control antibody on human Pan T cells
[7] = target: human CD3 (TCR/CD3 complex on the cell surface) (human) (UniProt P07766); assay: flow cytometry, gMFI Jurkat WT over Jurkat TCRb KO, 10 ug/mL
Chain of human CD3 (TCR/CD3 complex on the cell surface) (human) (P07766 23-207, chain 1 of 4): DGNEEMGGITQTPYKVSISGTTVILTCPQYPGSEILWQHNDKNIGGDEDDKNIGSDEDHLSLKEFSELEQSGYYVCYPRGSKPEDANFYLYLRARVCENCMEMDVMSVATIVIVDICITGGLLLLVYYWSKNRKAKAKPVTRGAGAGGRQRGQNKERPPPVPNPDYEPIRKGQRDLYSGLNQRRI
Chain of human CD3 (TCR/CD3 complex on the cell surface) (human) (P09693 23-182, chain 2 of 4, further chain): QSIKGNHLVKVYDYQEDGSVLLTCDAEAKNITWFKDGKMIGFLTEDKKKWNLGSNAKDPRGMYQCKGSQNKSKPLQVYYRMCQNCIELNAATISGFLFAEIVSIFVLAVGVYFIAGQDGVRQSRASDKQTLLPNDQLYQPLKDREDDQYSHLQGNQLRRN
Chain of human CD3 (TCR/CD3 complex on the cell surface) (human) (P04234 22-171, chain 3 of 4, further chain): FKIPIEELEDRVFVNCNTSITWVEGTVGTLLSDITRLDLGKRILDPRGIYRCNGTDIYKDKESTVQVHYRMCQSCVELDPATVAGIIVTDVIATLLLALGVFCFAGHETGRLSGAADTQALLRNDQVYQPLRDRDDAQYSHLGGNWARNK
Chain of human CD3 (TCR/CD3 complex on the cell surface) (human) (P20963 22-164, chain 4 of 4, further chain): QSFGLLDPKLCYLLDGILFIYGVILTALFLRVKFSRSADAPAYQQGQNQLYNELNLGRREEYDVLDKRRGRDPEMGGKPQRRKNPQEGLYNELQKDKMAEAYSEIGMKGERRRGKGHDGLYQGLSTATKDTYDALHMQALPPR

[8] = target: CD3 on Jurkat wild-type cells (UniProt P07766); assay: flow cytometry on Jurkat WT cells, antibody at 10 ug/ml
Chain of CD3 on Jurkat wild-type cells (P07766 23-207, chain 1 of 3): as the sequence (P07766 23-207, chain 1 of 4) above
Chain of CD3 on Jurkat wild-type cells (P04234 22-171, chain 2 of 3, further chain): as the sequence (P04234 22-171, chain 3 of 4, further chain) above
Chain of CD3 on Jurkat wild-type cells (P09693 23-182, chain 3 of 3, further chain): as the sequence (P09693 23-182, chain 2 of 4, further chain) above

CD33 on KILR-HL60 cells [9] = target: CD33 on KILR-HL60 cells (UniProt P20138); assay: flow cytometry on KILR-HL60 (CD33 expressing) cells, antibody at 10 ug/ml
Chain of CD33 on KILR-HL60 cells (P20138 18-364 limits assumed): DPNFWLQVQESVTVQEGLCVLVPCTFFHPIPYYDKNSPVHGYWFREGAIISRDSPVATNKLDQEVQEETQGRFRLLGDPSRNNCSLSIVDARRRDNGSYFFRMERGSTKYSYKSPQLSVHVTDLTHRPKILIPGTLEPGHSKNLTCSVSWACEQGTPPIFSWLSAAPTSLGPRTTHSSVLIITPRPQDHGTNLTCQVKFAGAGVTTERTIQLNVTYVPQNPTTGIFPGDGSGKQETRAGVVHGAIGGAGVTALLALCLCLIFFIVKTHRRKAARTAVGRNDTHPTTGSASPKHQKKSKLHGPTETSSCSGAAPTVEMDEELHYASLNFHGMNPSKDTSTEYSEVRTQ

[10] = target: human CD3 (TCR/CD3 complex on the cell surface) (human) (UniProt P07766); assay: flow cytometry, Jurkat WT cells, 1 ug/mL
[11] = target: human CD3 (TCR/CD3 complex on the cell surface) (human) (UniProt P07766); assay: flow cytometry, gMFI Jurkat WT over Jurkat TCRb KO, 1 ug/mL
[12] = target: human CD3 (TCR/CD3 complex on the cell surface) (human) (UniProt P07766); assay: flow cytometry, Pan-T cells, 1 ug/mL
[13] = target: Jurkat TCRb knockout cells; assay: flow cytometry on Jurkat KO (TCRb knockout) cells, negative control, antibody at 10 ug/ml
[14] = target: Jurkat TCRb knockout cells; assay: flow cytometry, Jurkat KO (TCRb knockout) cells, negative control, 1 ug/mL
CD33 on KILR-HL60 cells [15] = target: CD33 on KILR-HL60 cells (UniProt P20138); assay: flow cytometry on KILR-HL60 (CD33 expressing) cells, antibody at 1 ug/ml
[16] = target: Jurkat TCRb knockout cells; assay: flow cytometry, Jurkat KO (TCRb knockout) cells, negative control, 10 ug/mL
[17] = target: human CD3 (TCR/CD3 complex on the cell surface) (human) (UniProt P07766); assay: flow cytometry, Pan-T cells, 10 ug/mL
[18] = target: CD3 on Jurkat wild-type cells (UniProt P07766); assay: flow cytometry on Jurkat WT cells, antibody at 1 ug/ml
[19] = target: Jurkat TCRb knockout cells; assay: flow cytometry on Jurkat KO (TCRb knockout) cells, negative control, antibody at 1 ug/ml
[20] = target: human CD3 (TCR/CD3 complex on the cell surface) (human) (UniProt P07766); assay: flow cytometry, Jurkat WT cells, 10 ug/mL
[21] = target: human CD3 (on human Pan-T cells or donor PBMC) (human) (UniProt P07766); assay: cell-based or functional assay
Chain of human CD3 (on human Pan-T cells or donor PBMC) (human) (P07766 23-207, chain 1 of 4): as the sequence (P07766 23-207, chain 1 of 4) above
Chain of human CD3 (on human Pan-T cells or donor PBMC) (human) (P04234 22-171, chain 2 of 4, further chain): as the sequence (P04234 22-171, chain 3 of 4, further chain) above
Chain of human CD3 (on human Pan-T cells or donor PBMC) (human) (P09693 23-182, chain 3 of 4, further chain): as the sequence (P09693 23-182, chain 2 of 4, further chain) above
Chain of human CD3 (on human Pan-T cells or donor PBMC) (human) (P20963 22-164, chain 4 of 4, further chain): as the sequence (P20963 22-164, chain 4 of 4, further chain) above

Chain of Gemtuzumab (antibody) (HC): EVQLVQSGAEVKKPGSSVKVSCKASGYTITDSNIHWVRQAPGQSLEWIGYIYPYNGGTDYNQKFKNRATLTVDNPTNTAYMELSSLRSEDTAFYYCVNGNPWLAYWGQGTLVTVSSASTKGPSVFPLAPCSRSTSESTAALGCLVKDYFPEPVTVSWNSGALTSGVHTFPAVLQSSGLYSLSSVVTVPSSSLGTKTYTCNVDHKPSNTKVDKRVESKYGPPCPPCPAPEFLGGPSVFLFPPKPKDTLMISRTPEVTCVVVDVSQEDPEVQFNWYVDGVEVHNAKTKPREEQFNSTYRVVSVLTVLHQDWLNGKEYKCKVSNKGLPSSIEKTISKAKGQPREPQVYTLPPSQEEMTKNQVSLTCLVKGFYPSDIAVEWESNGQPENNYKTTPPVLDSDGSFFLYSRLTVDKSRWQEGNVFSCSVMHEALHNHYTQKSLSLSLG
Chain of Gemtuzumab (antibody) (LC): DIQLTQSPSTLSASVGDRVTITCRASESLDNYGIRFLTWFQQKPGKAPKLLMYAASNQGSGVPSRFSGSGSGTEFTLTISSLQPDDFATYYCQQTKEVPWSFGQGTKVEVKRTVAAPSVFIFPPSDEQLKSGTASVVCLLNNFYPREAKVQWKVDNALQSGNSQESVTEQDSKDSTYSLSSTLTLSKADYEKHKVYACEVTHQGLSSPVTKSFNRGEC
Chain of human CD3 (on the surface of Jurkat wild-type cells and of human Pan T cells) (human) (P07766 23-207, chain 1 of 4): as the sequence (P07766 23-207, chain 1 of 4) above
Chain of human CD3 (on the surface of Jurkat wild-type cells and of human Pan T cells) (human) (P09693 23-182, chain 2 of 4, further chain): as the sequence (P09693 23-182, chain 2 of 4, further chain) above
Chain of human CD3 (on the surface of Jurkat wild-type cells and of human Pan T cells) (human) (P04234 22-171, chain 3 of 4, further chain): as the sequence (P04234 22-171, chain 3 of 4, further chain) above
Chain of human CD3 (on the surface of Jurkat wild-type cells and of human Pan T cells) (human) (P20963 22-164, chain 4 of 4, further chain): as the sequence (P20963 22-164, chain 4 of 4, further chain) above

Row | Substance | gMFI (RT3-T3.5 (TCR-KO) cells [4]) [gMFI] | gMFI [5] [gMFI] | gMFI [6] [gMFI] | Jurkat WT/KO (Fold) [7] [fold] | flow cytometry signal [8] | flow cytometry signal (CD33 on KILR-HL60 cells [9]) | gMFI [10] [gMFI] | Jurkat WT/KO (Fold) [11] [fold] | % Positive [12] [%] | gMFI [12] [gMFI] | flow cytometry signal [13] | gMFI [14] [gMFI] | flow cytometry signal (CD33 on KILR-HL60 cells [15]) | gMFI [16] [gMFI] | % Positive [17] [%] | gMFI [17] [gMFI] | flow cytometry signal [18] | flow cytometry signal [19] | gMFI [20] [gMFI] | other results
1 | Isotype Control (antibody) |  |  |  |  |  |  |  |  |  |  |  |  |  |  |  |  |  |  |  | gMFI [1]: 1710 gMFI; gMFI (RT3-T3.5 (TCR-KO) cells [2]): 1820 gMFI; gMFI [3]: 4370 gMFI
2 | hIgG1 (antibody) |  |  |  | 0.9 | 2390 | 30200 | 1770 | 0.9 | 0.8 | 1860 | 2620 | 2020 | 34300 | 1860 | 0.8 | 1780 | 2700 | 2830 | 1740 | 
3 | SP34 (antibody) | 7160 | 114000 | 333000 |  |  |  |  |  |  |  |  |  |  |  |  |  |  |  |  | 
4 | Gemtuzumab (antibody) |  |  |  |  |  |  |  |  |  |  |  |  |  |  |  |  |  |  |  | Cytokine Release Assay (IFNγ), Donor 0, gMFI max [21]: 5340 gMFI; Cytokine Release Assay (IFNγ), Donor 1, gMFI max [21]: 4630 gMFI; Cytokine Release Assay (IFNγ), Donor 2, gMFI max [21]: 3580 gMFI; Cytokine Release Assay (IFNγ), Donor 3, gMFI max [21]: 4480 gMFI

More lines, main results first:

Row | gMFI (RT3-T3.5 (TCR-KO) cells [4]) [gMFI] | gMFI [5] [gMFI] | gMFI [6] [gMFI] | Jurkat WT/KO (Fold) [7] [fold] | flow cytometry signal [8] | flow cytometry signal (CD33 on KILR-HL60 cells [9]) | gMFI [10] [gMFI] | Jurkat WT/KO (Fold) [11] [fold] | % Positive [12] [%] | gMFI [12] [gMFI] | flow cytometry signal [13] | gMFI [14] [gMFI] | flow cytometry signal (CD33 on KILR-HL60 cells [15]) | gMFI [16] [gMFI] | % Positive [17] [%] | gMFI [17] [gMFI] | flow cytometry signal [18] | flow cytometry signal [19] | gMFI [20] [gMFI] | Substance | other results
5 | 5410 | 102000 | 359000 |  |  |  |  |  |  |  |  |  |  |  |  |  |  |  |  | UCHT1 (antibody) | 
6 | 4220 | 72300 | 300000 | 11.1 | 35800 | 11600 | 54000 | 11 | 99.6 | 603000 | 3680 | 4900 | 14800 | 4070 | 99.9 | 394000 | 82100 | 5180 | 45200 | OKT3 (antibody) | 
